Test results taken from publication PMC3605307 (PLoS Pathogens, 2013).
Changes are numbered by the printed parent chain. Numbers in names are those of the source.

B1: UL141-Fc fusion protein (Fc fusion)
chain: DIAEKMWAENYETTSPAPVLVAEGEQVTIPCTVMTHSWPMVSIRARFCRSHDGSDELILDAVKGHRLMNGLQYRLPYATWNFSQLHLGQIFSLTFNVSTDTAGMYECVLRNYSHGLIMQRFVILTQLETLSRPDEPCCTPALGRYSLGDQIWSPTPWRLRNHDCGMYRGFQRNYFYIGRADAEDCWKPACPDEEPDRCWTVIQRYRLPGDCYRSQPHPPKFLPVTPAPPADIDTGMS
B2: human TRAIL-R2-Fc D148A (Fc fusion)
chain: QQDLAPQQRAAPQQKRSSPSEGLCPPGHHISEDGRDCISCKYGQDYSTHWNDLLFCLRCTRCDSGEVELSPCTTTRNTVCQCEEGTFREEASPEMCRKCRTGCPRGMVKVGDCTPWSDIECVHKESG
notes: source: Sf9 insect cells, culture supernatant; not shown: Fc (human IgG1), C-terminal, kept
B3: human TRAIL-R2-Fc M152A (Fc fusion)
chain: B2 chain with A91D, M95A
notes: as for B2
B4: human TRAIL-R2-Fc K155A (Fc fusion)
chain: B2 chain with A91D, K98A
notes: as for B2
B5: human TRAIL-R2-Fc P150A (Fc fusion)
chain: B2 chain with A91D, P93A
notes: as for B2
B6: Human TRAIL-R2-Fc M152A (Fc fusion)
chain: B2 chain with A91D, M95A
notes: also called TRAIL-R2 M152A mutant; source: Sf9, culture supernatant used for SPR; not shown: Fc (human IgG1), C-terminal, kept
B7: Human TRAIL-R2-Fc K155A (Fc fusion)
chain: B2 chain with A91D, K98A
notes: source: Sf9, culture supernatant used for SPR; not shown: Fc (human IgG1), C-terminal, kept

Legend:
Experiment in all cases: SPR
[1] = target: T1, Human TRAIL-R2 ectodomain (residues 58–184), released from the Fc fusion (human, UniProt O14763 58-184, selenomethionine (only in the labelled complex of the derivative crystals)); details: both partners purified
T1 construct: also called DR5; TRAIL-R2 receptor; not shown: Fc (human IgG1), C-terminal, cleaved

[2] = target: T2, TRAIL (TNF-related apoptosis inducing ligand) ectodomain (UniProt P50591 39-281); details: one partner purified
T2 construct: also called TNFSF10; Apo2L

[3] = target: T3, TRAIL (TNF-related apoptosis inducing ligand) ectodomain (UniProt P50591 39-281); details: one partner purified; remark: listed apart in the source
T3 construct: also called TNFSF10; Apo2L

| Binder | Kd [2] | koff [2] | kon [2] | also measured |
| --- | --- | --- | --- | --- |
| B1 |  |  |  | Kd [1]: 21.4 nM; koff [1]: 0.00564 s⁻¹; kon [1]: 264000 M⁻¹ s⁻¹ |
| B2 | 4.48 nM | 3.58e-05 s⁻¹ | 8000 M⁻¹ s⁻¹ |  |
| B3 | 202 nM | 0.000678 s⁻¹ | 3350 M⁻¹ s⁻¹ |  |
| B4 | 39.7 nM | 0.000138 s⁻¹ | 3480 M⁻¹ s⁻¹ |  |
| B5 | 4.29 nM | 9.02e-06 s⁻¹ | 2100 M⁻¹ s⁻¹ |  |
| B6 |  |  |  | Kd [3]: 202 nM |
| B7 |  |  |  | Kd [3]: 40 nM |
